# Laboratory results taken from publication PMC12058022, “Promiscuous structural cross-compatibilities between major shell components of Klebsiella pneumoniae bacterial microcompartments” (PLOS One, 2025).
# Legend:
# Test in all cases: SEC; SEC-HPLC of purified individual His6-tagged BMC-H (urea-purified fractions; EutM, CmcB and EutK also from the soluble fraction), Beckman Ultraspherogel SEC2000, 20 mM Tris-HCl, 300 mM NaCl, pH 7; size from calibration standards
# [1] = target: EutM, His6-tagged (Klebsiella pneumoniae (strain 342))
# [2] = target: CmcB, His6-tagged (Klebsiella pneumoniae (strain 342))
# [3] = target: CmcC, His6-tagged (Klebsiella pneumoniae (strain 342))
# [4] = target: PduU, N-terminally His6-tagged (Klebsiella pneumoniae (strain 342)) (UniProt A6TDE7)
# [5] = target: CmcE, N-terminally His6-tagged (Klebsiella pneumoniae (strain 342))
# [6] = target: CmcA, His6-tagged (Klebsiella pneumoniae (strain 342))
# [7] = target: EutS, His6-tagged (Klebsiella pneumoniae (strain 342))
# [8] = target: CmcE, C-terminally His6-tagged (Klebsiella pneumoniae (strain 342))
# [9] = target: the molecule itself
molecule,measurement,setting,value
"EutM, His6-tagged (from UniProt A0A377ZA59 1-64) (natural protein)",stoichiometry N,[1],6
"CmcB, His6-tagged (natural protein)",stoichiometry N,[2],6
"CmcC, His6-tagged (natural protein)",stoichiometry N,[3],6
"PduU, N-terminally His6-tagged (from UniProt A6TDE7 1-116) (natural protein)",stoichiometry N,[4],6
"CmcE, N-terminally His6-tagged (natural protein)",stoichiometry N,[5],6
"CmcA, His6-tagged (natural protein)",stoichiometry N,[6],6
"EutS, His6-tagged (natural protein)",stoichiometry N,[7],6
"CmcE, C-terminally His6-tagged (natural protein)",stoichiometry N,[8],6
"PduJ, His6-tagged (natural protein, Klebsiella pneumoniae (strain 342), UniProt A6TDD7 1-91, looked up, PduJ, canonical BMC-H shell protein of the PDU microcompartment; theoretical monomer MW 9.2 kDa; not shown: His6, C-terminal, kept) MNNALGLVETKGLVGAIEAADAMVKSANVQLIGYEKIGSGLITVMVRGDVGAVKAAVDAGSAAASVVGEVKSSHVIPRPHSDVEAILPKSV",stoichiometry N,[9],6
"PduA, His6-tagged (natural protein, Klebsiella pneumoniae (strain 342), UniProt A0ACD7U6D6 1-94, looked up, PduA, canonical BMC-H shell protein of the PDU microcompartment; theoretical monomer MW 9.8 kDa; source: also co-expressed with a FLAG-tagged partner, in soluble lysate fraction and co-purified; not shown: His6, C-terminal, kept) MQQEALGMVETKGLTAAIEAADAMVKSANVLLVGYERIGSGLVTVIVRGDVGAVKAATDAGAAAARHVGEVKAVHVIPRPHTDVEKILPKGNSQ",stoichiometry N,[9],6
